Experimental data as given in article PMC7049166 (Proceedings of the National Academy of Sciences of the …, 2020).
Where “and” joins values, the source holds several entries; their conditions need not be identical. Equal values may be shown once.

Key:
crystal structure = biological target: the molecule itself; assay: crystal structure
[1] = biological target: the molecule itself; assay: cell-based or functional assay
SEC-MALS = biological target: the molecule itself; assay: SEC-MALS
AUC = biological target: the molecule itself; assay: AUC
cross-linking = biological target: the molecule itself; assay: cross-linking

B1: S. cerevisiae short Mgm1 (s-Mgm1), truncated version, residues 184-881 (domain or fragment, UniProt P32266 184-881, looked up)
chain: MLNLTKQMIEIRTILNKVDSSSAHLTLPSIVVIGSQSSGKSSVLESIVGREFLPKGSNMVTRRPIELTLVNTPNSNNVTADFPSMRLYNIKDFKEVKRMLMELNMAVPTSEAVSEEPIQLTIKSSRVPDLSLVDLPGYIQVEAADQPIELKTKIRDLCEKYLTAPNIILAISAADVDLANSSALKASKAADPKGLRTIGVITKLDLVDPEKARSILNNKKYPLSMGYVGVITKTPSSINRKHLGLFGEAPSSSLSGIFSKGQHGQSSGEENTNGLKQIVSHQFEKAYFKENKKYFTNCQVSTKKLREKLIKILEISMSNALEPTSTLIQQELDDTSYLFKVEFNDRHLTPKSYLLNNIDVLKLGIKEFQEKFHRNELKSILRAELDQKVLDVLATRYWKDDNLQDLSSSKLESDTDMLYWHKKLELASSGLTKMGIGRLSTMLTTNAILKELDNILESTQLKNHELIKDLVSNTAINVLNSKYYSTADQVENCIKPFKYEIDLEERDWSLARQHSINLIKEELRQCNSRYQAIKNAVGSKKLANVMGYLENESNLQKETLGMSKLLLERGSEAIFLDKRCKVLSFRLKMLKNKCHSTIEKDRCPEVFLSAVSDKLTSTAVLFLNVELLSDFFYNFPIELDRRLTLLGDEQVEMFAKEDPKISRHIELQKRKELLELALEKIDSILVFKKSYKGVSKNL
Q: Which “stoichiometry N” value (crystal structure) does the source give for B1 here?
A: 3

Q: And the “stimulation of s-Mgm1 GTPase activity by liposomes with 10% or 20% cardiolipin” value [1]?
A: 8 fold

Q: What about the “stoichiometry N” value (SEC-MALS) of the same protein?
A: 2

B2: s-Mgm1 R712A/E751A mutant (domain or fragment, S. cerevisiae, UniProt P32266 184-881, looked up)
chain: MLNLTKQMIEIRTILNKVDSSSAHLTLPSIVVIGSQSSGKSSVLESIVGREFLPKGSNMVTRRPIELTLVNTPNSNNVTADFPSMRLYNIKDFKEVKRMLMELNMAVPTSEAVSEEPIQLTIKSSRVPDLSLVDLPGYIQVEAADQPIELKTKIRDLCEKYLTAPNIILAISAADVDLANSSALKASKAADPKGLRTIGVITKLDLVDPEKARSILNNKKYPLSMGYVGVITKTPSSINRKHLGLFGEAPSSSLSGIFSKGQHGQSSGEENTNGLKQIVSHQFEKAYFKENKKYFTNCQVSTKKLREKLIKILEISMSNALEPTSTLIQQELDDTSYLFKVEFNDRHLTPKSYLLNNIDVLKLGIKEFQEKFHRNELKSILRAELDQKVLDVLATRYWKDDNLQDLSSSKLESDTDMLYWHKKLELASSGLTKMGIGRLSTMLTTNAILKELDNILESTQLKNHELIKDLVSNTAINVLNSKYYSTADQVENCIKPFKYEIDLEERDWSLARQHSINLIKEELRQCNSAYQAIKNAVGSKKLANVMGYLENESNLQKETLGMSKLLLARGSEAIFLDKRCKVLSFRLKMLKNKCHSTIEKDRCPEVFLSAVSDKLTSTAVLFLNVELLSDFFYNFPIELDRRLTLLGDEQVEMFAKEDPKISRHIELQKRKELLELALEKIDSILVFKKSYKGVSKNL
Q: Does B2 bind (AUC)?
A: binds

B3: HA-tagged s-Mgm1 S397C/E751C mutant (with 4CS mutations C341S, C676S, C709S, C763S) (domain or fragment, S. cerevisiae, UniProt P32266 184-881, looked up)
chain: MLNLTKQMIEIRTILNKVDSSSAHLTLPSIVVIGSQSSGKSSVLESIVGREFLPKGSNMVTRRPIELTLVNTPNSNNVTADFPSMRLYNIKDFKEVKRMLMELNMAVPTSEAVSEEPIQLTIKSSRVPDLSLVDLPGYIQVEAADQPIELKTKIRDLSEKYLTAPNIILAISAADVDLANSSALKASKAADPKGLRTIGVITKLDLVDPEKARCILNNKKYPLSMGYVGVITKTPSSINRKHLGLFGEAPSSSLSGIFSKGQHGQSSGEENTNGLKQIVSHQFEKAYFKENKKYFTNCQVSTKKLREKLIKILEISMSNALEPTSTLIQQELDDTSYLFKVEFNDRHLTPKSYLLNNIDVLKLGIKEFQEKFHRNELKSILRAELDQKVLDVLATRYWKDDNLQDLSSSKLESDTDMLYWHKKLELASSGLTKMGIGRLSTMLTTNAILKELDNILESTQLKNHELIKDLVSNTAINVLNSKYYSTADQVENSIKPFKYEIDLEERDWSLARQHSINLIKEELRQSNSRYQAIKNAVGSKKLANVMGYLENESNLQKETLGMSKLLLCRGSEAIFLDKRSKVLSFRLKMLKNKCHSTIEKDRCPEVFLSAVSDKLTSTAVLFLNVELLSDFFYNFPIELDRRLTLLGDEQVEMFAKEDPKISRHIELQKRKELLELALEKIDSILVFKKSYKGVSKNL
Q: How did the “stoichiometry N” value (cross-linking) turn out when B3 was run?
A: 2 and 3
